# Literature values in publication PMC5811428.
# Target: C5aR (Homo sapiens) (UniProt P21730)
# Chain of UniProt P21730 (P21730 whole entry): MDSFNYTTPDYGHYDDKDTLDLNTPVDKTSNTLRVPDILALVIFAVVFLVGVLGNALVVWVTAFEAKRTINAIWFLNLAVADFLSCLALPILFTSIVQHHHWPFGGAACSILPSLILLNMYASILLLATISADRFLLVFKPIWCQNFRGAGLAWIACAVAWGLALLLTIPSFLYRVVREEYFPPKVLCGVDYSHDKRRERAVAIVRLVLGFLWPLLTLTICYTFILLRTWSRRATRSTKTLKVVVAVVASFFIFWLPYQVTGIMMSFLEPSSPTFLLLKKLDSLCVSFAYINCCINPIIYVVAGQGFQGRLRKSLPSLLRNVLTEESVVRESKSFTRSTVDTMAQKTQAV
substance,measurement,value
hC5a C-terminal peptide CT peptide (from UniProt P01031),Kd,150 µM
